Measured values taken from patent US20210253709A1 (SUZHOU SMARTNUCLIDE BIOPHARMACEUTICAL, published 2021).
Values belong to the binder of their own block, whether it stands above or below them.

Experiments:
PDL1-Fc fusion protein [1] = biological target: T1, PDL1-Fc fusion protein (human, UniProt Q9NZQ7 19-238, limits assumed); assay: ELISA, plate coated with PDL1-Fc 0.5 ug/well, detection anti-his-HRP, OD405, 4-parameter fit (Plot1; same fit values as in Figure 2)
T1 construct: Transiently expressed in HEK293 and used as the plate coat in the ELISAs; not shown: Fc part
Description: (§1) The PDL1-Fc fusion protein was transiently expressed by HEK293 and purified by nickel column affinity chromatography. […] After washing, the anti-his horseradish peroxidase labeled antibody was added and incubated at room temperature for 1 hour. After washing, the developing solution was added, and the absorption value was read at wavelength of 405 nm. Application software SotfMaxPro v5.4 is used for data processing and mapping analysis.

PDL1-Fc fusion protein [2] = biological target: T1, PDL1-Fc fusion protein; assay: ELISA, plate coated with PDL1-Fc 0.5 ug/well, detection anti-his-HRP, OD405, 4-parameter fit (Plot2)
Description: as §1

[3] = biological target: PD-L1 target protein (Biacore ligand) (UniProt Q9NZQ7 19-238, limits assumed); assay: SPR (Biacore T200), 25 C, 109 as analyte at 3.125-200 ng/ml
Description: The experimental temperature of Biacore was 25° C. and the injection flow rate was 50 μl/min. The analyte was diluted with the HBS-EP+ buffer to a certain concentration, and was allowed to flow through the blank reference channel and the activated channel in turn. The signal value generated on the blank reference channel reflects the non-specific adsorption of the analyte on the chip, and the signal value generated on the activated channel reflects the specific binding between the analyte and the ligand. The analyte was introduced for 300 s, and then the HBS-EP+ buffer was introduced for 180 s to dissociate the analyte from the ligand. […] Different concentrations of analytes are repeatedly introduced and dissociated.

Sequence of PD-L1 target protein (Biacore ligand) (Q9NZQ7 19-238 limits assumed): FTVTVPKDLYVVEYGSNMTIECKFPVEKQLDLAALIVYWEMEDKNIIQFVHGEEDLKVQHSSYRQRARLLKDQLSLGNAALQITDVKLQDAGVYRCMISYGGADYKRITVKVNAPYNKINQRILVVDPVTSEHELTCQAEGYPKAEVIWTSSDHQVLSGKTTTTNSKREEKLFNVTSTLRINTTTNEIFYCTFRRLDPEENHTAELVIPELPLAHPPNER
T1 sequence (Q9NZQ7 19-238 limits assumed): as above

EC50 (PDL1-Fc fusion protein [1]): 2.89 ng/mL
B1: 109-chis (VHH)
VHH: QVQLQESGGGSVQAGGSLRLSCTASGFSLDDSDMGWYRQARGNVCQLVSTIASDRSTYYTPSVKGRFTISHDRAKNTIYLQMNSLKPEDTAVYYCAAAPRLAYTTAMTCEGDFAYWGQGTQVTVSS

EC50 (PDL1-Fc fusion protein [2]): 3.62 ng/mL
B2: ^69,71Ga-NOTA-109-chis (VHH)
VHH: QVQLQESGGGSVQAGGSLRLSCTASGFSLDDSDMGWYRQARGNVCQLVSTIASDRSTYYTPSVKGRFTISHDRAKNTIYLQMNSLKPEDTAVYYCAAAPRLAYTTAMTCEGDFAYWGQGTQVTVSS
modifications: one or two NOTA groups (from p-SCN-Bn-NOTA) conjugated per molecule, each chelating ^69,71Ga; conjugated lysines not assigned
notes: also called chelated products of PD-L1 single domain antibody protein

Kd [3]: 1.73 nM | koff [3]: 0.000438 s⁻¹ | kon [3]: 253000 M⁻¹ s⁻¹
B3: 109 heavy-chain single domain antibody (VHH)
VHH: QVQLQESGGGSVQAGGSLRLSCTASGFSLDDSDMGWYRQARGNVCQLVSTIASDRSTYYTPSVKGRFTISHDRAKNTIYLQMNSLKPEDTAVYYCAAAPRLAYTTAMTCEGDFAYWGQGTQVTVSS
notes: Untagged form
